According to publication PMC11145185, “Inhibition of mRNA nuclear export promotes SARS-CoV-2 pathogenesis” (Proceedings of the National Academy of Sciences of the …, 2024):
Changes are numbered by the printed parent chain. Names and notes keep the numbering of the source.

T1: human NXF1(117-619)-NXT1 heterodimer, wild type (human, UniProt Q9UBU9 117-619; Q9UKK6 1-140)
T1 construct: human NXF1 (mRNA export receptor), residues 117-619; human NXT1, coexpressed with NXF1; also called NXF1-NXT1; mRNA export receptor; source: E. coli Rosetta, coexpressed, purified (details in SI Appendix)
T1 sequence (looked up) 1: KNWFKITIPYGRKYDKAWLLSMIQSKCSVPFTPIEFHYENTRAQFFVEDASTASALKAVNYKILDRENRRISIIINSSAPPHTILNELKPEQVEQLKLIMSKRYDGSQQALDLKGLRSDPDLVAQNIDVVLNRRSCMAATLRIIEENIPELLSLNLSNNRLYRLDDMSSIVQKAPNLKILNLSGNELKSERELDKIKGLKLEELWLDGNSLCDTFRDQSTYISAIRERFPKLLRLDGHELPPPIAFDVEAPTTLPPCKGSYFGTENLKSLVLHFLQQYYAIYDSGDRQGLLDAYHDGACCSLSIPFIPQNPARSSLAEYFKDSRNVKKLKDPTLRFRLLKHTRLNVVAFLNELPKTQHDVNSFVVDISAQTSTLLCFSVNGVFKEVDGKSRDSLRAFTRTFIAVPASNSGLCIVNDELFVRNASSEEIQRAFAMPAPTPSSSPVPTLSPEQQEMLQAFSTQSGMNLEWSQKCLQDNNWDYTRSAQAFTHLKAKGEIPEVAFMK
T1 sequence (looked up) 2: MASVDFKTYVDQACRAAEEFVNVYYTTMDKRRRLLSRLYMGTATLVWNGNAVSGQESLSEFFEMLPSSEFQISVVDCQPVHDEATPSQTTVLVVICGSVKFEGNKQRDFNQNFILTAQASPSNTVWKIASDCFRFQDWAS

B1: GST-tagged SARS-CoV-2 Nsp1 E55A/E57A/K58E (natural protein)
chain: MESLVPGFNEKTHVQLSLPVLQVRDVLVRGFGDSVEEVLSEARQHLKDGTCGLVAVAEGVLPQLEQPYVFIKRSDARTAPHGHVMVELVAELEGIQYGRSGETLGVLVPHVGEIPVAYRKVLLRKNGNKGAGGHSYGADLKSFDLGDELGTDPYEDFQENWNTKHSSGVTRELMRELNGG
B2: GST-tagged SARS-CoV-2 Nsp1 L27D/V28D (natural protein)
chain: B1 chain with L27D, V28D, A55E, A57E, E58K
notes: also called hydrophobic patch mutant
B3: GST-tagged SARS-CoV-2 Nsp1 N-terminal domain (residues 1 to 129) (domain or fragment)
chain: MESLVPGFNEKTHVQLSLPVLQVRDVLVRGFGDSVEEVLSEARQHLKDGTCGLVEVEKGVLPQLEQPYVFIKRSDARTAPHGHVMVELVAELEGIQYGRSGETLGVLVPHVGEIPVAYRKVLLRKNGNK
B4: GST-tagged SARS-CoV-2 Nsp1 E91K/L92A/E93K/I95A (natural protein)
chain: B1 chain with A55E, A57E, E58K, E91K, L92A, E93K, I95A

target: T1, human NXF1(117-619)-NXT1 heterodimer, …; details: both partners purified

Binder | binding result
B1 | binds
B2 | binds
B3 | binds
B4 | binds
